Laboratory results from PMC2141752 (The Journal of Cell Biology, 1998).

B1: α–caveolin-1 (natural protein)
chain: MSGGKYVDSEGHLYTVPIREQGNIYKPNNKAMAEEMSEKQVYDAHTKEIDLVNRDPKHLNDDVVKIDFEDVIAEPEGTHSFDGIWKASFTTFTVTKYWFYRLLSALFGIPMALIWGIYFAILSFLHIWAVVPCIKSFLIEIQCISRVYSIYVHTFCDPFFEAVGKIFSNIRINMQKET
B2: canine caveolin-2 (natural protein)
chain: MGLETEKADVQLCMDDDAYSRHSAVDFGDLEQLADSGSDRDPRRLNSHLQVGFEDVIAEPVSTHSFDKVWICSHALFEVSKYVIYKFLTLLLAMPMAFAAGVLFATLSCLHIWIIMPFVKTCLMVLPSVQTIWKSVTDAVIAPLCSSVGRSFSSVSLQVSHD
modifications: phosphorylated at steady state (sites not given)
B3: β–caveolin-1 (natural protein)
chain: MAEEMSEKQVYDAHTKEIDLVNRDPKHLNDDVVKIDFEDVIAEPEGTHSFDGIWKASFTTFTVTKYWFYRLLSALFGIPMALIWGIYFAILSFLHIWAVVPCIKSFLIEIQCISRVYSIYVHTFCDPFFEAVGKIFSNIRINMQKET

Experiments:
[1] = target: B2; experiment: co-IP
[2] = target: B1; experiment: co-IP

Binder	ratio in the immunoprecipitate [1]	ratio in the immunoprecipitate [2]
B1	~1 α–caveolin-1 per caveolin-2	
B2		~0.5 caveolin-2 per α–caveolin-1
B3	~1 β–caveolin-1 per caveolin-2	~1 β–caveolin-1 per α–caveolin-1
